Measurements taken from paper doi:10.1101/2020.06.12.149468.

Biological target: DesC, NADH-dependent 20α-hydroxysteroid dehydrogenase of Clostridium scindens ATCC 35704 (Clostridium scindens ATCC 35704)
Experiment: crystal structure

stoichiometry N: 4
Substance: DesC, NADH-dependent 20α-hydroxysteroid dehydrogenase of Clostridium scindens ATCC 35704 (enzyme)
